Test results taken from paper PMC3679363 (Molecular cell, 2013).

Biological target: recombinant His-Tip60α ( (human or mouse cDNA cloned), UniProt Q92993 1-513)
Test: pull-down

recombinant His-Tip60α, sequence (Q92993 whole entry): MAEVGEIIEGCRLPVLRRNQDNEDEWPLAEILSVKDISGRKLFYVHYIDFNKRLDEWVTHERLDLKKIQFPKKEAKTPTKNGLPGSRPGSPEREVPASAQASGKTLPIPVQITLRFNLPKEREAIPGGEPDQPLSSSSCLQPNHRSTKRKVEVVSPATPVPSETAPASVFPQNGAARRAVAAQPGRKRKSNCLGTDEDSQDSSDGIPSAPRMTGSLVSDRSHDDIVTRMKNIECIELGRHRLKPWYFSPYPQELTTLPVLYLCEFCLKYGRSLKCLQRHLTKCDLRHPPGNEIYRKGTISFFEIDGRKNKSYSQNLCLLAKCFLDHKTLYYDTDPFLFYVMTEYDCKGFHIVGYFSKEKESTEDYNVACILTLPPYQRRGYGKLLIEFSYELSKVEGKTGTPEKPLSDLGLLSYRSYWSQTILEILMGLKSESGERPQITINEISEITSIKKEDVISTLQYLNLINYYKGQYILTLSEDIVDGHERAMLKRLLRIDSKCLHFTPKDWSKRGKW

- binding result: binds
B1: GST-PRAK (enzyme, UniProt Q8IW41 1-473, looked up)
chain: MSEESDMDKAIKETSILEEYSINWTQKLGAGISGPVRVCVKKSTQERFALKILLDRPKARNEVRLHMMCATHPNIVQIIEVFANSVQFPHESSPRARLLIVMEMMEGGELFHRISQHRHFTEKQASQVTKQIALALRHCHLLNIAHRDLKPENLLFKDNSLDAPVKLCDFGFAKIDQGDLMTPQFTPYYVAPQVLEAQRRHQKEKSGIIPTSPTPYTYNKSCDLWSLGVIIYVMLCGYPPFYSKHHSRTIPKDMRRKIMTGSFEFPEEEWSQISEMAKDVVRKLLKVKPEERLTIEGVLDHPWLNSTEALDNVLPSAQLMMDKAVVAGIQQAHAEQLANMRIQDLKVSLKPLHSVNNPILRKRKLLGTKPKDSVYIHDHENGAEDSNVALEKLRDVIAQCILPQAGKGENEDEKLNEVMQEAWKYNRECKLLRDTLQSFSWNGRGFTDKVDRLKLAEIVKQVIEEQTTSHESQ
